The text below walks through data of article PMC6981728, “The Mitochondrial Small Heat Shock Protein HSP22 from Pea is a Thermosoluble Chaperone Prone to Co-Precipitate with Unfolding Client Proteins” (International Journal of Molecular Sciences, 2019).

Several values for one entry are separate records, joined by “and”; a condition that tells them apart may be missing. Equal entries are not always repeated.

Data set [1] has as its target T1, rhodanese from bovine liver (bovine, UniProt P00586 1-297).
T1 construct: rhodanese (thiosulfate sulfurtransferase) from bovine liver; called a monomeric enzyme of 33 kDa; In the assays it is heat denatured (50 °C) and aggregating; source: bought: Merck KGaA (rhodanese from bovine liver II)
T1 sequence (looked up): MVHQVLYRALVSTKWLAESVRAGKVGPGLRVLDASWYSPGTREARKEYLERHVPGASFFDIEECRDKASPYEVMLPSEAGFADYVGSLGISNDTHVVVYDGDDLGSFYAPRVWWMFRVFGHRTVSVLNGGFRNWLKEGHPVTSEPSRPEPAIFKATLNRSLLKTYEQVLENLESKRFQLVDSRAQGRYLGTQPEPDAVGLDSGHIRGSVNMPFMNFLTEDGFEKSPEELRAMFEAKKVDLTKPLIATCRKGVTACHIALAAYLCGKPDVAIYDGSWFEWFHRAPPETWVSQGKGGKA
In words: co-sedimentation; heat aggregation assay with purified proteins: 8 to 25 µg of proteins in 50 µL MOPS 50 mM pH 7.5, DTT 1 mM, EDTA 1 mM, heated 20 min at 50 °C, 15 min on ice, centrifuged 30 min at 20,000 g; supernatants and pellets by SDS-PAGE; 1:1 mass ratio or molar ratios up to 9:1. To be noted: both partners purified.

Data set [2] concerns the molecule itself. In words: SEC; purified HSP22rec (100 µg) at 20 °C; Superdex 200 10/300GL, 0.25 mL/min, 20 mM Tris pH 7.4, 1 mM EDTA, 150 mM NaCl; masses from a calibration curve with standard proteins.
Data set [3] deals with the molecule itself. Put plainly: SEC; pea seed mitochondrial soluble proteins (7 mg) separated at 20 °C; fractions analysed by Western blot with the anti-HSP22 Cterm antibody.

In general, stoichiometry N refers to the number of molecules, sites or subunits per partner or assembly.

B1: recombinant HSP22 (HSP22rec), mature mitochondrial small heat shock protein HSP22 from pea (natural protein, UniProt P46254 32-202, looked up)
chain: FNTNAMRQYDQHSDDRNVDVYRHSFPRTRRDDLLLSDVFDPFSPPRSLSQVLNMVDLLTDNPVLSAASRRGWDARETEDALFLRLDMPGLGKEDVKISVEQNTLTIKGEEGAKESEEKEKSGRRFSSRIDLPEKLYKIDVIKAEMKNGVLKVTVPKMKEEERNNVINVKVD
notes: mature HSP22 of pea, amplified from a cDNA encoding the HSP22 precursor (UniProtKB P46254); 19.5 kDa and 170 residues stated; Cloned by NdeI/BamHI into pET3a, so an added initiator methionine is likely (surmise); No tag is mentioned; source: E. coli B834 pLys (pET3a, pET-HSP22), purified (anion exchange HitrapQ, two SEC steps on Superdex 200); also unpurified in soluble extract of the …
As to B1, in data set [1], the binding result is “binds”. Also, the “stoichiometry N” value in data set [2] is 20 mer and 12 mer and 8 mer.

B2: native HSP22 of pea seed mitochondria (natural protein, UniProt P46254 32-202, looked up)
chain: FNTNAMRQYDQHSDDRNVDVYRHSFPRTRRDDLLLSDVFDPFSPPRSLSQVLNMVDLLTDNPVLSAASRRGWDARETEDALFLRLDMPGLGKEDVKISVEQNTLTIKGEEGAKESEEKEKSGRRFSSRIDLPEKLYKIDVIKAEMKNGVLKVTVPKMKEEERNNVINVKVD
notes: mitochondrial small heat shock protein HSP22 of pea, native protein in the soluble (matrix) extract of mitochondria from 22 h imbibed pea seeds; Detected by Western blot with anti-HSP22 peptide antibodies; source: endogenous, soluble protein extract of pea seed mitochondria
Turning to B2, in data set [3], the “stoichiometry N” value is 2 mer and 3 mer.
